Activity (1-depletion score) data for four sequences are collected here from patent US20240425885.

Holding throughout (experiment): cleavage_in_vitro
In data set [1] the test system is T1, OMNI-137 (metagenomic, unknown).
T1 sequence: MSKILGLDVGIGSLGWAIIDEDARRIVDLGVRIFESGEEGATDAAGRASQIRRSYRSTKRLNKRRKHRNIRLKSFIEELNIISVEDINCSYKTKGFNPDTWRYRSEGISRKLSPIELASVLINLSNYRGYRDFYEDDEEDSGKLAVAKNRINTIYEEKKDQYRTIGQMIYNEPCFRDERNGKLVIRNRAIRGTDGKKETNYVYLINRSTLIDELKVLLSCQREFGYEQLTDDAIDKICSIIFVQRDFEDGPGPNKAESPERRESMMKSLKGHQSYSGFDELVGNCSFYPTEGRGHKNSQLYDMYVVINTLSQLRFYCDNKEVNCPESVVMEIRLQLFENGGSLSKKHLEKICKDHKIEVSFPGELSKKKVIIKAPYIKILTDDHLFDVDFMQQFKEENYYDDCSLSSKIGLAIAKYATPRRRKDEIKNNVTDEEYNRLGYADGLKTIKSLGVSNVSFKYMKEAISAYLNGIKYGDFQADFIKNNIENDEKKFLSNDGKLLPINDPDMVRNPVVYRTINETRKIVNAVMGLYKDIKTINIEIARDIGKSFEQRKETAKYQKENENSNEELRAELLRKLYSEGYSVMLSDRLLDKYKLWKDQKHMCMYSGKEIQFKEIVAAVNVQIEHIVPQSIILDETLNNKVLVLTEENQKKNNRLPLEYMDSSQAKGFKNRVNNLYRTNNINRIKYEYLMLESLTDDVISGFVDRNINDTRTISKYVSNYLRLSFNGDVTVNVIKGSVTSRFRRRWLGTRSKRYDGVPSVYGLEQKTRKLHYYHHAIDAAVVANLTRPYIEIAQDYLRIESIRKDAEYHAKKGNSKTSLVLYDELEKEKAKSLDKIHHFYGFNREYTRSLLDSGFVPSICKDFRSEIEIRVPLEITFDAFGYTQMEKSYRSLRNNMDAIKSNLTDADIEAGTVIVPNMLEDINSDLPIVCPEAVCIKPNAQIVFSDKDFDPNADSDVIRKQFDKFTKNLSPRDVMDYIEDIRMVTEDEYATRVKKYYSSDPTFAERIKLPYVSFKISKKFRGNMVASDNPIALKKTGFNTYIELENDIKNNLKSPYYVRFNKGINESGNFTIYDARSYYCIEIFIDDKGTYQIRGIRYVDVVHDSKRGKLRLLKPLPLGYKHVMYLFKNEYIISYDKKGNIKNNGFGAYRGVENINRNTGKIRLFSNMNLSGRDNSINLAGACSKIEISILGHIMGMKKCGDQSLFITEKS
The note with it: TXTL; PAM NNRCRGNN

Data set [2] has as its system T2, OMNI-95 (metagenomic, unknown).
T2 sequence: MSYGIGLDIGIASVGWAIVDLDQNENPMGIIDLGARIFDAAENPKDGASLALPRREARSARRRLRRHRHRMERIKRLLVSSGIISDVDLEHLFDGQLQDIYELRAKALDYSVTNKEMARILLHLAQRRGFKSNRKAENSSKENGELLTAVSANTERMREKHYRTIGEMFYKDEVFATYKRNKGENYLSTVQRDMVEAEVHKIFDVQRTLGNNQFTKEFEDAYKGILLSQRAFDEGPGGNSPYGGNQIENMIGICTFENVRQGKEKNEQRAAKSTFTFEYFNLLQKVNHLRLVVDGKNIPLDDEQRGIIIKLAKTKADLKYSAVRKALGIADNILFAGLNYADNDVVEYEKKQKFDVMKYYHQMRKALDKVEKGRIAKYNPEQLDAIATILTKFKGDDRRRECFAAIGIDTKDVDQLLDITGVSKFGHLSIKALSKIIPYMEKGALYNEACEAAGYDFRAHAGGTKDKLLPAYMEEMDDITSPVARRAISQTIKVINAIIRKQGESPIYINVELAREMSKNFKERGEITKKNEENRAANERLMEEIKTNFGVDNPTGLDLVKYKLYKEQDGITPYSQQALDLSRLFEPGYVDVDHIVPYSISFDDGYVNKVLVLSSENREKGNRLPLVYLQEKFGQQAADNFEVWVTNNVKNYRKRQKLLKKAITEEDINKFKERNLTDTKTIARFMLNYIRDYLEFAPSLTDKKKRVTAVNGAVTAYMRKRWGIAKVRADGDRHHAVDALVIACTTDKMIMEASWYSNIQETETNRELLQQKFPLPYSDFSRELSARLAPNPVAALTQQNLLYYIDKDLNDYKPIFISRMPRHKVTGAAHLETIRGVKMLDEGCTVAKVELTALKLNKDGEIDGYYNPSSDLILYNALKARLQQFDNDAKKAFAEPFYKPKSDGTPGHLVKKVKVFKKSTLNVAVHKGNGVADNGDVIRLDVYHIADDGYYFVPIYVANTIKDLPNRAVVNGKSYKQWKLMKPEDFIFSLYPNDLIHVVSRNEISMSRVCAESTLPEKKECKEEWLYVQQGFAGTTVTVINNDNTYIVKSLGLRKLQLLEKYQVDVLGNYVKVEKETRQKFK
The settings on record: TXTL; PAM NNGYAANN

The subject of data set [3] is T3, OMNI-138 (metagenomic, unknown).
T3 sequence: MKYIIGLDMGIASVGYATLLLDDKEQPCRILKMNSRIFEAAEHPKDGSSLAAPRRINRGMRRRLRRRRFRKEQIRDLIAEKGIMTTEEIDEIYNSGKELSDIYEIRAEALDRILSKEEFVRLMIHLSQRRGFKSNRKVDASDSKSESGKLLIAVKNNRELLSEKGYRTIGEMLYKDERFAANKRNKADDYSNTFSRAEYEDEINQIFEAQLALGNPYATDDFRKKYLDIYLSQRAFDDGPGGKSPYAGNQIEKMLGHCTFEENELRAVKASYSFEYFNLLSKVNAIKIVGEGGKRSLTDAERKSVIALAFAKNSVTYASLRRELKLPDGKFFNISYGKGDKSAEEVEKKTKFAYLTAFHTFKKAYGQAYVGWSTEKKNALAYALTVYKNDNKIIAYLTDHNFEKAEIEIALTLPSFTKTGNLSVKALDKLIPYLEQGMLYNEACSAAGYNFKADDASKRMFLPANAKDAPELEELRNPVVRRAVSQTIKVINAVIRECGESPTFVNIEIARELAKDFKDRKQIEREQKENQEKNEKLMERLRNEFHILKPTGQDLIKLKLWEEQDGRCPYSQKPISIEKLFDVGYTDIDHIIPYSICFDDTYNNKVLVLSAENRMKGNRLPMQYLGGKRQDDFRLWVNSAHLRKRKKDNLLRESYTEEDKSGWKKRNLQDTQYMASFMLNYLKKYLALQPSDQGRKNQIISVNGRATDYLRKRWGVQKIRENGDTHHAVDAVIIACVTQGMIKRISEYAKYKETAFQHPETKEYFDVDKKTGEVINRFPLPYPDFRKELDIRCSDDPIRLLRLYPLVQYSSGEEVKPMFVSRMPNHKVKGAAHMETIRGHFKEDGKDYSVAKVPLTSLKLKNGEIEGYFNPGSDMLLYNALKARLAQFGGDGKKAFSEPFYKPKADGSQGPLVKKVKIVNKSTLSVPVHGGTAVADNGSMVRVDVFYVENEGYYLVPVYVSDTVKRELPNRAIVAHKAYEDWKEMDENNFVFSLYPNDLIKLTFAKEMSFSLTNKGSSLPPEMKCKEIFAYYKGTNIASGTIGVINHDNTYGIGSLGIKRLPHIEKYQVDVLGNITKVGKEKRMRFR
The settings on record: TXTL; PAM NNNNGTKA

Data set [4] has as its system T4, OMNI-94 (metagenomic, unknown).
T4 sequence: T2 sequence
The note with it: TXTL; PAM NNRRAYGN

“GGAAGAGCAGAGCCUUGGUCUCGUUUUAGUUCUCGGACGAAAGUCCGAGAAUCUAAGAUAAAGCUAUAUGCUGUGGGGUUGCGUAUCCCCUUAUCGAACGUACUAAGAUGAGUUUCGGCUCAUCUUUUUU / GGAAGAGCAGAGCCTTGGTCTCNNNNNNNN / NNNNNNNNGAGACCAAGGCTCTGCTCTTCC [T2 sgRNA 37 V1 ; T2 protospacer + 8N PAM library (pbPOS T2)]” yielded an activity (1-depletion score) in data set [1] of 0.97. Turning to “GGAAGAGCAGAGCCUUGGUCUCAUUUUAGUACCUGGAGAAAGAAAUUUCUUCAGACCUACUAAAACAAGGCUUUAUGCCGAAAGUUUUUUUGAUUUGAAUUGAAUGAGUUGAAAGAGGAUGCCGACGGGUGUCCUCUUUUUUU / GGAAGAGCAGAGCCTTGGTCTCNNNNNNNN / NNNNNNNNGAGACCAAGGCTCTGCTCTTCC [T2 sgRNA 6 V1 ; T2 protospacer + 8N PAM library (pbPOS T2)]”, in data set [2], the activity (1-depletion score) was determined as 0.77. The sequence “GGAAGAGCAGAGCCUUGGUCUCGUUGUAGUUCCCUAAUUAUGAAAACAAUUAGGUUACUAUGAUAAGGUAGUAUACCGCAAAGCUCUAACGCCUCAUCUUAAUGAUGGGGCGUUAUCUUUUUU / GGAAGAGCAGAGCCTTGGTCTCNNNNNNNN / NNNNNNNNGAGACCAAGGCTCTGCTCTTCC [T2 sgRNA 38 V1 ; T2 protospacer + 8N PAM library (pbPOS T2)]” registered an activity (1-depletion score) in data set [3] of 0.97. Turning to “GGAAGAGCAGAGCCUUGGUCUCGUUGUAGCUCCCUGUUAAUGAAAACUAACAGGUUACUACAAUAAGGUCUUAGGACCGCAAAGCUCUAUCGCCCUACAUCCGUAGGGCGAUAUCUUUUUAUACAUUUUUU / GGAAGAGCAGAGCCTTGGTCTCNNNNNNNN / NNNNNNNNGAGACCAAGGCTCTGCTCTTCC [T2 sgRNA 5 V1 ; T2 protospacer + 8N PAM library (pbPOS T2)]”, in data set [4], the activity (1-depletion score) came out at 0.69.
